Source: article PMC3361975

B1: PTDH ortholog from R. metallidurans (Cupriavidus metallidurans CH34) (protein)
chain: MNHRKIVVTQPVHEEVLRKLQAEGEVIMNPGPDPWSPSQLREYLVDADAMMAFMTDSVTKESLLNAPRLKTISCALKGYDNFDLRACAQAGVSVTFVPDLLTEPTAELAIGLAIAAGRNVLQGDAATRAGYSGWRPALYGTGLHGSVASVIGLGKVGQAILARLAGFGCARLLGVDPSVRLDQVELVTLDEAVSTSDYVFLAVPLVSDTRHLVDSRMLQLSKKGQILVNVGRGSVVDERAVVDALANEQLGAYAADVYEMEDWLLPDRPREIHPGLTNNARTVLTPHIGSAVRRVRFEIEMRAAENLVRSLRGESLSDVAVEASAAA
B2: PTDH ortholog from N. punctiforme (Nostoc punctiforme PCC 73102) (protein)
chain: MKPKVVITHWVHPEIITNLSEYCEVVANPTRETLPREEILKLAQDAEALMVFMPDRIDEAFLKACPKLKIIAGALKGYDNFDVDACTRQGIWFTIVPSLLAVPTAELTIGLIIGLARQMLLGDRLIRQGTFAGWRPHLYGMGLANRTLGIVGMGSLGQALAQRLSSFEMNLIYTDAIPLPKEKAAAWCLSQVSLDTLLATSDFVVLMVPLQPETFHLINEKSLARMKPGSFLINPCRGSVVDEQAVSDALASGHLAGYAADVFELEDWARSDRPSKIPPSLLEKQDQTFFTPHLGSAVDDLRYDIAIEASQNILQVLQGHSPQGAINCPS
B3: wt-PTDH (P. stutzeri) (Stutzerimonas stutzeri) (protein)
chain: MLPKLVITHRVHDEILQLLAPHCELMTNQTDSTLTREEILRRCRDAQAMMAFMPDRVDADFLQACPELRVVGCALKGFDNFDVDACTARGVWLTFVPDLLTVPTAELAIGLAVGLGRHLRAADAFVRSGEFQGWQPQFYGTGLDNATVGILGMGAIGLAMADRLQGWGATLQYHEAKALDTQTEQRLGLRQVACSELFASSDFILLALPLNADTQHLVNAELLALVRPGALLVNPCRGSVVDEAAVLAALERGQLGGYAADVFEMEDWARADRPRLIDPALLAHPNTLFTPHIGSAVRAVRLEIERCAAQNIIQVLAGARPINAANRLPKAEPAAC

Experiments:
[1] = substrate: O=[PH](O)O; test: purified protein; conditions: co-substrate NAD+, 100 mM MOPS pH 7.25, 30 °C
[2] = substrate: NC(=O)c1ccc[n+]([C@@H]2O[C@H](COP(=O)(O)OP(=O)(O)OC[C@H]3O[C@@H](n4cnc5c(N)ncnc54)[C@H](O)[C@@H]3O)[C@@H](O)[C@H]2O)c1; test: purified protein; conditions: co-substrate phosphite, 100 mM MOPS pH 7.25, 30 °C

| Protein | Km [1] | kcat [1] | Km [2] | kcat [2] |
| --- | --- | --- | --- | --- |
| B1 | 54.9 (6.8) μM | 6.83 (0.43) s^-1 | 4.5 (0.9) μM | 6.83 (0.43) s^-1 |
| B2 | 25.4 (1.2) μM | 3.36 (0.03) s^-1 | 19.4 (1.6) μM | 3.36 (0.03) s^-1 |
| B3 | 81.1 (1.6) μM | 6.57 (0.03) s^-1 | 52.2 (3.3) μM | 6.57 (0.03) s^-1 |
